# Assay results reported in article PMC3247650 (Pharmaceutical research, 2011).
# Experiments:
# Porcine kidney DPP IV = Porcine kidney DPP IV (Sus scrofa, UniProt P22411); test: DPP IV degradation of GLP-1 in the presence or absence of PGC or PGC-C18; type: in vitro ADME; settings: 24 hours, 37°C, reverse phase HPLC, mean +/−SD, n=6
# DPP IV = settings: read-out: Km of DPP IV for GLP-1; cited from earlier work
# [1] = Stability of PGC-C18-GLP-1 formulation at 37°C; type: physicochemical; settings: GLP-1 without PGC-C18, liquid, 100mM glycine pH 6.8, 2mg/ml GLP-1, 37°C, total GLP-1 peak by reverse phase HPLC
# Appearance = type: physicochemical; settings: GLP-1 1mg/ml in neutral solution
# Chain of Porcine kidney DPP IV (P22411 whole entry): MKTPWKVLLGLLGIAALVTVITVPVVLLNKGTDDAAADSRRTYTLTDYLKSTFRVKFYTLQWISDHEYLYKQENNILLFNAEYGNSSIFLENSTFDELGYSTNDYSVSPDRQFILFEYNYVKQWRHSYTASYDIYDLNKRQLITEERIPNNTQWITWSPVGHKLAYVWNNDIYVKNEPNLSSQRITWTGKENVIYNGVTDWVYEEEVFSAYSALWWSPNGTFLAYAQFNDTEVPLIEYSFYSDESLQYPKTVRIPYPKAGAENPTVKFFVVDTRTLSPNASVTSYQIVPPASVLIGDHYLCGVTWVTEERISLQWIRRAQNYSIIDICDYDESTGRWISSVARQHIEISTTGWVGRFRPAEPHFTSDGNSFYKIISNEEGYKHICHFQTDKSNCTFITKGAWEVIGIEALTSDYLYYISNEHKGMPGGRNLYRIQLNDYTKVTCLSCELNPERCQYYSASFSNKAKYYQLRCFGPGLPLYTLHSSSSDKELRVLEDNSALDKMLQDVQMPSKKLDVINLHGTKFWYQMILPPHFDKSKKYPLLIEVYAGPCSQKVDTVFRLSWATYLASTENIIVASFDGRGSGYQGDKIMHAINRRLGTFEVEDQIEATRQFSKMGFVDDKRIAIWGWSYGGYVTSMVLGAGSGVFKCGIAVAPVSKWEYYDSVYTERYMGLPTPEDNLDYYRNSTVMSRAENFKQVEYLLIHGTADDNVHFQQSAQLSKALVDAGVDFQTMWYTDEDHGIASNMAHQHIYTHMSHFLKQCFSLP
substance,measurement,setting,value
Glucagon-like peptide-1 [GLP-1],GLP-1 degraded by DPP IV in the presence of the carrier PGC-C18,"Porcine kidney DPP IV; 1mg/ml GLP-1 + 10mg/ml PGC-C18 (1:10 w/w), PBS pH 7.4, 1.25mU/mL DPP IV",26+/−2%
same,"GLP-1 degraded by DPP IV, without any carrier","Porcine kidney DPP IV; 1mg/ml GLP-1, PBS pH 7.4, 1.25mU/mL DPP IV",58+/−5%
same,Km,DPP IV,36 µM
same,GLP-1 broken down within a month,[1],greater than 10%
same,appearance of solution when heated to 50°C,Appearance; 50°C,quite clear
same,appearance of solution as it cools down to room temperature,Appearance; cooled from 50°C to room temperature,turns cloudy and less soluble
